B1: 2C12 (antibody, V domains shown)
VH: QITLRESGPTLVKPTQTLTLTCTFSGFSLNTNGVGVGWIRQPPGKALEWLALIYWNGNEGYSPSLKSRLTITKDTSKNQVVLTMTNMDPVDTATYYCVHWPQGLTTVTRLAFDIWGQGTMVTVSS
VL: QSALTQPRSVSGSPGQSVTISCTGTTSDVGRYNFVSWYQQHPGKAPKLLMYDVSQRPSGVPSRFSGSKSGNTASLTISGLQAEDEAVFYCCSYAGGNFFSYVFGTGTKVTVL
notes: human IgG mAb; also called 2C12-biotin
B2: 7I13 (antibody, V domains shown)
VH: QVQLVESGGGVVQPGRSLRLSCAASGFTFSNYGMHWVRQGPGKGLEWVAVISYDASSKYYTDSVQGRFTISRDNSKNTLFLQMNSLRGEDTAVYYCAKALRYLDWFLSDPFDYWGQGTLVTVSS
VL: EIVLTQSPGTLSLSPGERATLSCRASQSVSSDFLAWYQQKPGQAPRLLIYGASSRATGIPDRFSGSGSGTDFTLTISRLEPEDFAVYYCQQYAASPPFGQGTRLEIK
notes: human IgG mAb
B3: 7B13 (antibody, V domains shown)
VH: QVQLVESGGGVVQPGGSLRLSCAASGFSFSNYGMHWVRQAPGKGLEWVALIPSDGNYQYYTDSVKGRFTVSRDNSRNTLYLQMKSLRAEDTARYHCAHLGGGLFDFWGQGTLVTVSS
VL: QSALNQPRSVSGSPGQSVSISCTGSSSDVGGYEFVSWYQHHPGKAPKLIIYDVDKRPSGVPDRFSGSRSGDTASLTISGLQAEDEADYYCYSSADTWVFGGGTKLTVL
notes: human IgG mAb
B4: 8J16 (antibody, V domains shown)
VH: QVQLQESGPGLVKPSETLSLTCSVSGGFTSSYYWSWIRQAPGKGLEWIGYVYYGESTDYNPSLKSRATISIDTSKNQFSLKLSSVTAADTAVYYCAREVDKRGFDYWGQGALVTVSS
VL: EIVLTQSPGTLSLSPGERATLSCRASQSVSGGYLAWYQQEPGQAPRLVIYGASSRATGIPDRFSASGSGTDFTLTITRLEPEDFAVYYCQQYGRTPLTFGGGTKVEIK
notes: human IgG mAb; also called 8J16-biotin
B5: 8C15 (antibody, V domains shown)
VH: QVQLQESGPGLVKPSETLSLTCTVSGGSIRSYYWSWIRQPPGKGLEWIGHIYYSGNTNYSPSLQSRVTISLDTPKNQFSLRLSSVTAADTAVYYCARHDVIVVRGVFDVWGQGTVVTVSS
VL: QSALTQPASVSGSPGQSITISCTGTSSDIGTYNLVSWYQQHPGKAPKVLIYDGSKRPSGVSSRFSASKSGNTASLTISGLQAEDETDYYCCSYAGTSDFFVVFGGGTKLTVL
notes: human IgG mAb; also called 8C15-biotin
B6: 9I6 (antibody, V domains shown)
VH: EVQLVQSGAEVKKPGESLKISCRESGDTFPAYWIAWVRQMPGKGLEWMGIIYPIDSETTYSPSFQGQVTISADKSINTAYLQWSSLKASDSAIYYCARGTSTGLREAFHIWGQGTMVTVSS
VL: DVVMTQSPLSLAVTLGQPAYISCRSSQSLGYSDGNTYLNWFQQRPGQSPRRLIYEVSNRDSGVPDRFSGSGSGTDFTLKISRVEAEDVGTYYCMQGTHWPPMCSFGQGTKLEIK
notes: human IgG mAb; also called 9I6-biotin; 916

target: T1, hCMV UL128, UL130 and UL131A co-expressed in HEK293T cells (human cytomegalovirus, UniProt P16837 1-171; P16772 1-214); assay: cell-based or functional assay
T1 sequence (P16837 whole entry, chain 1 of 2): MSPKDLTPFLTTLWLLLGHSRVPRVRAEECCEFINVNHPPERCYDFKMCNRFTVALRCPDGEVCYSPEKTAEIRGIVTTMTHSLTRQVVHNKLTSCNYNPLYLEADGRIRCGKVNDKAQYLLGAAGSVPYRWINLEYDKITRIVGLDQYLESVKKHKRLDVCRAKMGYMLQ
T1 sequence (P16772 whole entry, chain 2 of 2): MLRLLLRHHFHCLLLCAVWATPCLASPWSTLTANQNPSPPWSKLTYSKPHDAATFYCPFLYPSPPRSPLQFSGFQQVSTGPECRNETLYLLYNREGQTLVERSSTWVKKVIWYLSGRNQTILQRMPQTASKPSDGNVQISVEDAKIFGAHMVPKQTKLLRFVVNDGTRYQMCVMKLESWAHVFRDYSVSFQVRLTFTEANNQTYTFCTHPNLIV

Row | Binder | 50% Neutralization ARPE (hCMV VR1814) | 50% Neutralization MRC-9 (hCMV VR1814)
1 | B1 | < 0.01 µg/mL | ≤ 2 µg/mL
2 | B2 | < 0.01 µg/mL | > 2 µg/mL
3 | B3 | < 0.001 µg/mL | > 2 µg/mL
4 | B4 | < 0.001 µg/mL | > 2 µg/mL
5 | B5 | < 0.001 µg/mL | > 2 µg/mL
6 | B6 | < 0.001 µg/mL | > 2 µg/mL

target: T1, hCMV UL128, UL130 and UL131A …; assay: cell-based or functional assay; remark: another data set of the same source

Row | Binder | 90% Neutralization ARPE (hCMV VR1814) | 90% Neutralization MRC-9 (hCMV VR1814)
7 | B1 | 0.006 µg/mL | > 10 µg/mL
8 | B2 | 0.008 µg/mL | > 10 µg/mL
9 | B3 | 0.003 µg/mL | > 10 µg/mL
10 | B4 | 0.0008 µg/mL | > 10 µg/mL
11 | B5 | 0.0025 µg/mL | > 10 µg/mL
12 | B6 | 0.0007 µg/mL | > 10 µg/mL

target: T2, hCMV gH, gL, UL128, UL130 and UL131A co-expressed in HEK293T cells (human cytomegalovirus, UniProt P12824 24-743; P16832 31-278; P16837 1-171; P16772 1-214); assay: cell cross-competition, 20x excess; competitor 2F4-biotin
T2 construct: whole, on cells; also called gH + gL + UL128 + UL130 + UL131A; gH/gL/UL128-130 complex

Row | Binder | Inhibition of binding (%)
13 | B1 | 0%
14 | B4 | 0%
15 | B6 | 0%

target: T2, hCMV gH, gL, UL128, UL130 and UL131A …; assay: cell cross-competition, 20x excess; competitor 5A2-biotin

Row | Binder | Inhibition of binding (%)
16 | B1 | 0%

target: T2, hCMV gH, gL, UL128, UL130 and UL131A …; assay: cell cross-competition, 20x excess; competitor 6G4-biotin

Row | Binder | Inhibition of binding (%)
17 | B1 | 100%
18 | B2 | 0%
19 | B3 | 100%
20 | B4 | 100%
21 | B5 | 100%
22 | B6 | 100%

target: T2, hCMV gH, gL, UL128, UL130 and UL131A …; assay: cell cross-competition, 20x excess; competitor 9I6-biotin

Row | Binder | Inhibition of binding (%)
23 | B1 | 100%
24 | B2 | 0%
25 | B3 | 100%
26 | B4 | 70%
27 | B5 | 100%
28 | B6 | 100%

target: T2, hCMV gH, gL, UL128, UL130 and UL131A …; assay: cell cross-competition, 20x excess; competitor 10F7-biotin

Row | Binder | Inhibition of binding (%)
29 | B1 | 0%

target: T2, hCMV gH, gL, UL128, UL130 and UL131A …; assay: cell cross-competition, 20x excess; competitor 15D8-biotin

Row | Binder | Inhibition of binding (%)
30 | B1 | 0%

target: T2, hCMV gH, gL, UL128, UL130 and UL131A …; assay: cell cross-competition, 20x excess; competitor 1F11-biotin

Row | Binder | Inhibition of binding (%)
31 | B1 | 0%
32 | B2 | 0%
33 | B4 | 0%
34 | B6 | 0%

target: T2, hCMV gH, gL, UL128, UL130 and UL131A …; assay: cell cross-competition, 20x excess; competitor 4I22-biotin

Row | Binder | Inhibition of binding (%)
35 | B1 | 0%
36 | B4 | 0%
37 | B5 | 0%
38 | B6 | 0%

target: T2, hCMV gH, gL, UL128, UL130 and UL131A …; assay: cell cross-competition, 20x excess; competitor 4N10-biotin

Row | Binder | Inhibition of binding (%)
39 | B1 | 0%

target: T2, hCMV gH, gL, UL128, UL130 and UL131A …; assay: cell cross-competition, 20x excess; competitor 2C12-biotin

Row | Binder | Inhibition of binding (%)
40 | B1 | 100%
41 | B2 | 0%
42 | B3 | 100%
43 | B4 | 100%
44 | B5 | 100%
45 | B6 | 100%

target: T2, hCMV gH, gL, UL128, UL130 and UL131A …; assay: cell cross-competition, 20x excess; competitor 8C15-biotin

Row | Binder | Inhibition of binding (%)
46 | B1 | 100%
47 | B2 | 0%
48 | B3 | 100%
49 | B4 | 100%
50 | B5 | 100%
51 | B6 | 100%

target: T2, hCMV gH, gL, UL128, UL130 and UL131A …; assay: cell cross-competition, 20x excess; competitor 8I21-biotin

Row | Binder | Inhibition of binding (%)
52 | B1 | 0%
53 | B2 | 0%
54 | B3 | 0%
55 | B4 | 0%
56 | B5 | 0%
57 | B6 | 0%

target: T2, hCMV gH, gL, UL128, UL130 and UL131A …; assay: cell cross-competition, 20x excess; competitor 8J16-biotin

Row | Binder | Inhibition of binding (%)
58 | B1 | 100%
59 | B2 | 0%
60 | B3 | 100%
61 | B4 | 100%
62 | B5 | 100%
63 | B6 | 100%

— patent publication US20100092481A1 (INSTITUTE FOR RESEARCH IN BIOMEDICINE, published 2010)
